How the values were obtained:
[1] = target: wild type mouse IL-17RB-SEFIR (WT-RB-SEFIR) (mouse) (UniProt Q9JIP3); test: SPR; printed as Ka
[2] = target: crystallized mutant mouse IL-17RB-SEFIR (RB-SEFIR-M; K364A, K367A, K368A and K369A quadruple mutant, residues 325-486) (mouse) (UniProt Q9JIP3); test: SPR; printed as Ka
crystallized mutant mouse IL-17RB-SEFIR (RB-SEFIR-M; K364A, K367A, K368A and K369A quadruple mutant, residues 325-486) (mouse), sequence (Q9JIP3 325-486 K364A/K367A/K368A/K369A): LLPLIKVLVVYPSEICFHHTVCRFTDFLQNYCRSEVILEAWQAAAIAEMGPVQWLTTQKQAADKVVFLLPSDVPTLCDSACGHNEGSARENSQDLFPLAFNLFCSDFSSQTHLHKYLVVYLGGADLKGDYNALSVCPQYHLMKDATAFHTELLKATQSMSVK

recombinant mouse Act1 SEFIR domain (mAct1-SEFIR, residues 391 to 537), sequence (Q8N7N6 391-537): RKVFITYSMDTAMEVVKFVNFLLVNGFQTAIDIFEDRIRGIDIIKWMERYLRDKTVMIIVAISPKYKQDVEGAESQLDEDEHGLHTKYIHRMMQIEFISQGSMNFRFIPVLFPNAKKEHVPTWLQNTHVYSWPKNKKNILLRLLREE
wild type mouse IL-17RB-SEFIR (WT-RB-SEFIR) (mouse), sequence (Q9JIP3 314-486): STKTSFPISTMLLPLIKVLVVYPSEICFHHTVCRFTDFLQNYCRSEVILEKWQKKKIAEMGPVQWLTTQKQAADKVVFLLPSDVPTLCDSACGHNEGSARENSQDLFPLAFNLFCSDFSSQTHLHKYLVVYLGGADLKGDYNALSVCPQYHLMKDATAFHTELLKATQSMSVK

With “recombinant mouse Act1 SEFIR domain (mAct1-SEFIR, residues 391 to 537) (from UniProt Q8N7N6 391-537)” the Kd [1] was 1400 nM and the Kd [2] was 1500 nM.
